According to article PMC1390689:

Target: T1, GSThPif1ΔN (Homo sapiens, UniProt Q9H611 167-641)
T1 sequence: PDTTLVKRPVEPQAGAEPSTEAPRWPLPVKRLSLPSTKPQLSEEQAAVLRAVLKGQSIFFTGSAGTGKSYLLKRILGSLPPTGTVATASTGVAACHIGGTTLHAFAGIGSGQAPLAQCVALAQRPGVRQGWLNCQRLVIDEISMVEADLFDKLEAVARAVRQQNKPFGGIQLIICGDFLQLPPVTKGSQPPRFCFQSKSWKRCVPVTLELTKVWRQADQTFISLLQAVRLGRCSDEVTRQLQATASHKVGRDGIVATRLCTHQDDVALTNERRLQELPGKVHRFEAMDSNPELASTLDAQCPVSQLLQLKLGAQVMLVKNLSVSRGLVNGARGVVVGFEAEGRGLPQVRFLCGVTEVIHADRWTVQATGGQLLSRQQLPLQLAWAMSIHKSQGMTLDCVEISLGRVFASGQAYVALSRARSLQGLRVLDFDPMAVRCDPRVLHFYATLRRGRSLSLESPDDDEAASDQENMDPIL
Experiment: EMSA

TTAGGGTTAGGGTTAGGG (ssDNA) [tel18]: binds.
